What was measured:
[1] = Solubility of quercetin under buffer conditions used; type: physicochemical; conditions: buffer conditions used in the fermenter
Procedure: In order to explore the potential of the whole-cell biocatalysts for large-scale production of glucosides in the absence of added UDP-glucose, transformed bacterial cells were cultured in a fermenter. This process enabled conditions to be controlled tightly throughout the production cycle and a direct comparison to be made of the efficiency of conversion of whole-cell UGT biocatalysis in a simple culture flask and an optimised fermenter system. UGT73B3 was chosen for the analysis, since preliminary experiments (Table 2) had shown formation of a single product, the 3-O-glucoside, at levels of 8.96 μg/ml following 24 h incubation. […] The Figure also illustrates the final level of glucoside was much higher than the soluble aglycone at time 0 h.

[2] = Whole-cell bioreactor assay in fermentor system; type: cell-based, E. coli
Procedure: A 6 L glass autoclavable fermentor system (Applikon Biotechnology Ltd.) was used for large-scale analysis of UGT whole-cell biocatalysts. E. coli BL21 overnight culture (40 ml) expressing UGT was transferred into the fermentor system containing 2 L of LB medium previously equilibrated at 30° C., pH 7.4. The dissolved O2 level was maintained at 95% for 1 h and was decreased to 60% throughout the remaining process. When the culture reached an optical density at 0.2, the temperature was lowered to 20° C. 0.1 mM of isopropyl-1-thio-β-D-galactopyranoside and 2 g of quercetin were added after the bacterial culture reached an optical density at 0.6. Samples were harvested at intervals and the bacterial cells were removed by centrifugation. The resulting supernatant fractions (culture medium) were analysed with HPLC.
In order to explore the potential of the whole-cell biocatalysts for large-scale production of glucosides in the absence of added UDP-glucose, transformed bacterial cells were cultured in a fermenter. This process enabled conditions to be controlled tightly throughout the production cycle and a direct comparison to be made of the efficiency of conversion of whole-cell UGT biocatalysis in a simple culture flask and an optimised fermenter system. […]

[3] = Whole-cell biocatalyst assay, E. coli expressing UGT in culture medium; type: cell-based; conditions: E. coli, 2x YT medium, 0.1 mM IPTG, 0.1 mM quercetin, 24 h, no added UDP-glucose
Procedure: FIG. 14 Whole-cell biocatalyst assay using UGT71C1. E. coli cells expressing recombinant were used in the biocatalyst assay. After incubation with 0.1 mM quercetin and 0.1 mM IPTG, cells were collected by centrifugation, extracted with 80% methanol and both the cell extracts (pellet) and culture medium (supernatant) were analysed using HPLC. (A) Changes in the combined amounts of aglycone/glucoside over a time-course of 0-48 h. (B) Changes in the level of different glucosides and aglycone in the culture medium over the same time-course.
Using the foundation established in the preceding example, we went on to investigate the potential of E. coli expressing plant UGTs as whole-cell biocatalysts to synthesise glucosides of quercetin. In the first instance, we used E. coli grown in 75 ml of standard culture medium. […] Table 2 describes results in which 7 different UGTs are expressed in E. coli and the identity and quantity of different glucosides recovered in the medium were analysed by HPLC. […] There was considerable variation in the level of different glucosides synthesised by the cells, although even under these non-optimised conditions, each of the four monoglucosides and two di-O-glucosides could be formed.

[4] = UGT enzyme reaction with quercetin (recombinant UGTs, HPLC); type: biochemical, Arabidopsis; conditions: 0.5 mM quercetin, 5 mM UDP-glucose, 30° C.
Summary of the method: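 Recombinant Arabidopsis UGTs (2 μg) incubated with 0.5 mM quercetin and 5 mM UDP-glucose in 100 mM Tris-HCl pH 7.0 at 30 °C for 1 h. Quercetin glucosides separated from aglycone by reverse-phase C18 HPLC (acetonitrile gradient, 0.1% TFA), detected at 370 nm.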

Row | Molecule | solubility [1] | yield of 3-O-glucoside, fermenter versus culture flask ([2]; 99.3 μg/ml at 20 h versus 8.96 μg/ml at 24 h) [fold] | yield of 3-O-glucoside in the culture ([2]; fermenter system, 20 h) [µg/mL] | Culture medium (μg/ml in supernatant) 3-O-glc [3] [µg/mL] | Specific activity (nkat/mg protein) 3-O-glc ([4]; quercetin glucosylated at 3-OH) [nkat/mg protein] | Specific activity (nkat/mg protein) 3′-O-glc ([4]; quercetin glucosylated at 3′-OH) | Specific activity (nkat/mg protein) 4′-O-glc ([4]; quercetin glucosylated at 4′-OH) | Specific activity (nkat/mg protein) 7-O-glc ([4]; quercetin glucosylated at 7-OH)
1 | O=c1c(O)c(-c2ccc(O)c(O)c2)oc2cc(O)cc(O)c12 [Quercetin, quercetin] | relatively insoluble |  |  |  |  |  |  | 
2 | UGT73B3: Arabidopsis recombinant glycosyltransferase (protein, UniProt Q8W491 1-481, looked up) UDP-glycosyltransferase 73B3: MSSDPHRKLHVVFFPFMAYGHMIPTLDMAKLFSSRGAKSTILTTPLNSKIFQKPIERFKNLNPSFEIDIQIFDFPCVDLGLPEGCENVDFFTSNNNDDRQYLTLKFFKSTRFFKDQLEKLLETTRPDCLIADMFFPWATEAAEKFNVPRLVFHGTGYFSLCSEYCIRVHNPQNIVASRYEPFVIPDLPGNIVITQEQIADRDEESEMGKFMIEVKESDVKSSGVIVNSFYELEPDYADFYKSVVLKRAWHIGPLSVYNRGFEEKAERGKKASINEVECLKWLDSKKPDSVIYISFGSVACFKNEQLFEIAAGLETSGANFIWVVRKNIGIEKEEWLPEGFEERVKGKGMIIRGWAPQVLILDHQATCGFVTHCGWNSLLEGVAAGLPMVTWPVAAEQFYNEKLVTQVLRTGVSVGAKKNVRTTGDFISREKVVKAVREVLVGEEADERRERAKKLAEMAKAAVEGGSSFNDLNSFIEEFTS |  | 10 | 99.3 | 8.96 | 1.57 | — (Activity lower than 0.02 nkat/mg protein has been considered as trace activity and is not shown in the Table.) | — (Activity lower than 0.02 nkat/mg protein has been considered as trace activity and is not shown in the Table.) | — (Activity lower than 0.02 nkat/mg protein has been considered as trace activity and is not shown in the Table.)

Source: patent US7662583B2, “Bioreactor containing cells expressing glycosyltransferase nucleic acids isolatable from Arabidopsis” (The University of York, priority 2003, dated 2010)
